Data reported in article PMC8648671.

Columns and labels:
[1] = target: βPix-SH3 mutant-Myc (W43K)

B1: Dyn2-GFP (natural protein)
chain: MGNRGMEELIPLVNKLQDAFSSIGQSCHLDLPQIAVVGGQSAGKSSVLENFVGRDFLPRGSGIVTRRPLILQLIFSKTEYAEFLHCKSKKFTDFDEVRQEIEAETDRVTGTNKGISPVPINLRVYSPHVLNLTLIDLPGITKVPVGDQPPDIEYQIKDMILQFISRESSLILAVTPANMDLANSDALKLAKEVDPQGLRTIGVITKLDLMDEGTDARDVLENKLLPLRRGYIGVVNRSQKDIEGRKDIRAALAAERKFFLSHPAYRHMADRMGTPHLQKTLNQQLTNHIRESLPTLRSKLQSQLLSLEKEVEEYKNFRPDDPTRKTKALLQMVQQFGVDFEKRIEGSGDQVDTLELSGGARINRIFHERFPFELVKMEFDEKDLRREISYAIKNIHGVRTGLFTPDLAFEAIVKKQVVKLKEPCLKCVDLVIQELISTVRQCTSKLSSYPRLREETERIVTTYIREREGRTKDQILLLIDIEQSYINTNHEDFIGFANAQQRSTQLNKKRAIPNQGEILVIRRGWLTINNISLMKGGSKEYWFVLTAESLSWYKDEEEKEKKYMLPLDNLKIRDVEKGFMSNKHVFAIFNTEQRNVYKDLRQIELACDSQEDVDSWKASFLRAGVYPEKDQAENEDGAQENTFSMDPQLERQVETIRNLVDSYVAIINKSIRDLMPKTIMHLMINNTKAFIHHELLAYLYSSADQSSLMEESAEQAQRRDDMLRMYHALKEALNIIGDISTSTVSTPVPPPVDDTWLQNTSSHSPTPQRRPVSSVHPPGRPPAVRGPTPGPPLIPMPVGATSSFSAPPIPSRPGPQNVFANNDPFSAPPQIPSRPARIPPGIPPGVPSRRAPAAPSRPTIIRPAEPSLLD
- Rac1 activity (Rac1-GTP by GST-PBD pull-down, against total Rac1) in HEK293T cells transfected with Flag-βPix and Dyn2-GFP, relative to non-transfected cells (Flag-βPix): 3 fold
- Rac1 activity (Rac1-GTP by GST-PBD pull-down) in HEK293T cells transfected with the Flag-tagged SH3 mutant of βPix and Dyn2-GFP [1]: 50%
